Source: US5780265A, “Kunitz type plasma kallikrein inhibitors” (Genentech, Inc., priority 1995, dated 1998)
Read-outs that look alike come from different tables or passages of the source. Bridges are numbered along the chain shown (N, C = ends). Where no end group is shown, it is not given here.

Columns and labels:
thrombin = target: T1, thrombin (Homo sapiens, UniProt P00734); test: Specificity assay, thrombin; assay type: biochemical; settings: 100 nM inhibitor; thrombin 6.2 nM, 0.7 mM S2366
T1 construct: purchased Haematologic Technologies Inc. (Essex Jct., Vt.)
Procedure: (§1) Aliquots (30 μL) of various inhibitors diluted to 500 nM were incubated with each protease (100 μL) in the appropriate buffer. After incubation of the substrate/inhibitor mixes at room temperature for 2 h, the appropriate substrate (20 μL) was added, and the absorbance at 405 nm was monitored. […] For this experiment, the concentrations of thrombin, TF-FVIIa, FXa, FXIa, FXIIa, and plasmin are approximate and are determined based upon the manufacturers' specifications.
(§2) Serine proteases (1 to 20 nM) were assayed in the presence of 100 nM inhibitor.

Factor XIa [1] = target: T2, Factor XIa (Homo sapiens, UniProt P03951); test: Specificity assay, Factor XIa; assay type: biochemical; settings: 100 nM inhibitor; FXIa […], 0.7 mM S2366, 1 mg/mL BSA
T2 construct: purchased Haematologic Technologies Inc. (Essex Jct., Vt.)
T2 sequence (P03951 388-625 limits assumed): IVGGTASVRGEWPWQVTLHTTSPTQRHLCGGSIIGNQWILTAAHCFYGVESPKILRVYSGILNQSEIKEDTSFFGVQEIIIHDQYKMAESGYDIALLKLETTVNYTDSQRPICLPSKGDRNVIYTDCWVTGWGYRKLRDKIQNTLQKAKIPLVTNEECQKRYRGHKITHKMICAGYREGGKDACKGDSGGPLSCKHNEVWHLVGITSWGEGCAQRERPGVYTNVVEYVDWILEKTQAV
T2 sequence (P03951 19-387 limits assumed): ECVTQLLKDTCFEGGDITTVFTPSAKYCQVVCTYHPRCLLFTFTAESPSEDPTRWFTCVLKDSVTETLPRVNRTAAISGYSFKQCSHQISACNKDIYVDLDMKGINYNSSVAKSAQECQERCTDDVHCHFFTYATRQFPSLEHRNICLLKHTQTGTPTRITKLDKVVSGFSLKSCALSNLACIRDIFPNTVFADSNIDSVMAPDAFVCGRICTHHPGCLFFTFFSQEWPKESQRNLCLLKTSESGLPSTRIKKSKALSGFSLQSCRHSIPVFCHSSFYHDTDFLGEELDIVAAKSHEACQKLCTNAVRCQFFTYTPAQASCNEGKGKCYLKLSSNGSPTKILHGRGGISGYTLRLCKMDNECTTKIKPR
Procedure: (§3) Aliquots (30 μL) of various inhibitors diluted to 500 nM were incubated with each protease (100 μL) in the appropriate buffer. After incubation of the substrate/inhibitor mixes at room temperature for 2 h, the appropriate substrate (20 μL) was added, and the absorbance at 405 nm was monitored. […] The FXIa assay also contained 1 mg/mL BSA. The concentration of FXIa throughout refers to the concentration of active sites. For this experiment, the concentrations of thrombin, TF-FVIIa, FXa, FXIa, FXIIa, and plasmin are approximate and are determined based upon the manufacturers' specifications.
(§4) Serine proteases (1 to 20 nM) were assayed in the presence of 100 nM inhibitor. […] The degree to which FXIa was inhibited by selected inhibitors including the consensus mutants was further investigated by measuring the Ki *.

activated protein C = target: T3, activated protein C (Homo sapiens, UniProt P04070); test: Specificity assay, activated protein C; assay type: biochemical; settings: 100 nM inhibitor; activated protein C 7.6 nM, 0.7 mM S2366
T3 construct: purchased Haematologic Technologies Inc. (Essex Jct., Vt.)
T3 sequence (P04070 212-461 limits assumed): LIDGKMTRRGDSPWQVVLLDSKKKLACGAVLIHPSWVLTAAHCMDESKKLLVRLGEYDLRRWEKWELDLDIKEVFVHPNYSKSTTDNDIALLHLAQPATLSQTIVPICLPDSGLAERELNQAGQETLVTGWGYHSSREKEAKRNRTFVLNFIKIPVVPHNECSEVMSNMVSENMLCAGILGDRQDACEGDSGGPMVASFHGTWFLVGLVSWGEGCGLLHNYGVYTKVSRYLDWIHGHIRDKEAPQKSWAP
T3 sequence (P04070 43-197 limits assumed): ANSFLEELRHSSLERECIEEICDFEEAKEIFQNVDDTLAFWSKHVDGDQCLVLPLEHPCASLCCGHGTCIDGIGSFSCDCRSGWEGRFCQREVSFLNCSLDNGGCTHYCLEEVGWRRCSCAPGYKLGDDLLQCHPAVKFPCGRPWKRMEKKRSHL
Procedure: as §3, §4

[2] = target: T4, TF-FVIIa (tissue factor-Factor VIIa) (Homo sapiens, UniProt P08709); test: Specificity assay, TF-FVIIa; assay type: biochemical; settings: 100 nM inhibitor; TF 77 nM-FVIIa 14 nM, 0.7 mM S2366
T4 construct: purchased Haematologic Technologies Inc. (FVIIa); TF made in house; host or cells: E. coli (TF 1-243)
T4 sequence (P08709 213-466 limits assumed): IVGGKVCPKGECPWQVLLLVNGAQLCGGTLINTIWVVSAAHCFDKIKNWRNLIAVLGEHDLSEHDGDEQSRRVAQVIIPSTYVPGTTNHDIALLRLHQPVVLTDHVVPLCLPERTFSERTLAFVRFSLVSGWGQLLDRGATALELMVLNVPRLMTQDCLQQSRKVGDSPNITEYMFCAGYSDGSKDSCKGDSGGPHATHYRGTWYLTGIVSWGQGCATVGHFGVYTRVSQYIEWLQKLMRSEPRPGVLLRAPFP
T4 sequence (P08709 61-212 limits assumed): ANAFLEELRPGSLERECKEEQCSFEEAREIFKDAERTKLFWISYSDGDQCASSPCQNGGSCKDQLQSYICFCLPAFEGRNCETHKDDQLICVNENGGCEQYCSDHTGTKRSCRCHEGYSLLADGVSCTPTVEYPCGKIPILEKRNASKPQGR
T4 sequence (P13726 33-275 partner limits assumed): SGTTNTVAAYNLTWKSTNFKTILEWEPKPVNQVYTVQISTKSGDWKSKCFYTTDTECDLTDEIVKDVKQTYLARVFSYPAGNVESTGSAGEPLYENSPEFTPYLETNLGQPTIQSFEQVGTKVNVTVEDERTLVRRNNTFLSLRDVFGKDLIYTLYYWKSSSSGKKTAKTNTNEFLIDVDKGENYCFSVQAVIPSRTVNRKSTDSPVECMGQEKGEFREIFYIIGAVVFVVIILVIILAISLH
Procedure: as §3, §4

Factor XIIa = target: T5, Factor XIIa (Homo sapiens, UniProt P00748); test: Specificity assay, Factor XIIa; assay type: biochemical; settings: 100 nM inhibitor; 0.7 mM S2302
T5 construct: purchased Enzyme Research Laboratories, Inc. (South Bend, Ind.)
T5 sequence (P00748 373-615 limits assumed): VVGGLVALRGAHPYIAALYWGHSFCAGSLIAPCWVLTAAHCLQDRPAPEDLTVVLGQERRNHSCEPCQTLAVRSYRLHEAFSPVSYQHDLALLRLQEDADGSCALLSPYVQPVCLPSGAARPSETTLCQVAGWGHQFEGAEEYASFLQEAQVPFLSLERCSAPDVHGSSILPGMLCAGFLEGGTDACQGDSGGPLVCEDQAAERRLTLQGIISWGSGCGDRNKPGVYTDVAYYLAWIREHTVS
T5 sequence (P00748 20-372 limits assumed): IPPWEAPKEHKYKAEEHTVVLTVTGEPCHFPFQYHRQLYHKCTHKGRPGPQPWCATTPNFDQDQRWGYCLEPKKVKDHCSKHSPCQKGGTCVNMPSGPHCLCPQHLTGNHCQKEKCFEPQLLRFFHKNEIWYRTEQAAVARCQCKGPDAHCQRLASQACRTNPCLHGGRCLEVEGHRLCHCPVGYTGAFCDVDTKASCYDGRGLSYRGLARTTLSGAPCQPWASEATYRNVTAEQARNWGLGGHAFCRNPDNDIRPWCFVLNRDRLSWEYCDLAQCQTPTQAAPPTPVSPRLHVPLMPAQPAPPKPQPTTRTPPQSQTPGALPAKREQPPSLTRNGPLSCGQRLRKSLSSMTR
Procedure: as §1, §2

plasmin = target: T6, plasmin (Homo sapiens, UniProt P00747); test: Specificity assay, plasmin; assay type: biochemical; settings: 100 nM inhibitor; for fraction of remaining proteolytic activity, plasmin: plasmin 32 nM, 0.7 mM S2251
T6 construct: Human plasmin, S-2302, S-2251, and S-2366 were purchased from Kabi Vitrum (Sweden); purchased Kabi Vitrum (Sweden)
T6 sequence (P00747 581-810 limits assumed): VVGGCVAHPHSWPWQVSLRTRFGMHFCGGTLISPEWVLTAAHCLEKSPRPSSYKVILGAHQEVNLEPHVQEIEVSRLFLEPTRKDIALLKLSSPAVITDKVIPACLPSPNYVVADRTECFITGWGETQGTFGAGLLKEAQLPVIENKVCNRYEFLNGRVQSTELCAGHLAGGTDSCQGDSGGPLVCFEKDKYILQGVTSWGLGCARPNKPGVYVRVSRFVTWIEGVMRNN
T6 sequence (P00747 97-580 limits assumed): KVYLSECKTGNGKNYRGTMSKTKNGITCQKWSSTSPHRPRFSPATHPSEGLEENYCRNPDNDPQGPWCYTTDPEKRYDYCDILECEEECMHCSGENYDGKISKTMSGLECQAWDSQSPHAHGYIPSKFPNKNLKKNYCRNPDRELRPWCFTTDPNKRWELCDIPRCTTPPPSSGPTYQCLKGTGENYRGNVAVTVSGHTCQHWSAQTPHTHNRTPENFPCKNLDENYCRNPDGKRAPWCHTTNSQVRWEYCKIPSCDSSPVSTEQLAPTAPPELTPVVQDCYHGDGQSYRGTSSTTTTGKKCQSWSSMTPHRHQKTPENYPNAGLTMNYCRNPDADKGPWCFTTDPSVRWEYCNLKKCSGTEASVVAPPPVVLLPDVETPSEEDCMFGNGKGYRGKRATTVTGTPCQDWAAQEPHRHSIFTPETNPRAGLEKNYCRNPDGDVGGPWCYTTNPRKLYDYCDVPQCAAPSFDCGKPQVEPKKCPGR
Procedure: as §3, §4

plasma kallikrein [3] = target: T7, plasma kallikrein (Homo sapiens, UniProt P03952); test: Specificity assay, plasma kallikrein; assay type: biochemical; settings: 100 nM inhibitor; plasma kallikrein 3.5 nM, 0.7 mM S2302; 2 h room temperature
T7 construct: Human plasma kallikrein and Factor XIIa were purchased; purchased Enzyme Research Laboratories, Inc. (South Bend, Ind.)
T7 sequence (P03952 391-638 limits assumed): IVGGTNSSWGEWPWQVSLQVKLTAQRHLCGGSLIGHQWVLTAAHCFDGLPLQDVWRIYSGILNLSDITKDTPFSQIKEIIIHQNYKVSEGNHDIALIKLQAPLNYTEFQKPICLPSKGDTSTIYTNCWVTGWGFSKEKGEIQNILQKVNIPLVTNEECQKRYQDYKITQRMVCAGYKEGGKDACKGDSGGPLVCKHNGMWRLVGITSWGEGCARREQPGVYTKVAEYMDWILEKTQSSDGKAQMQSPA
T7 sequence (P03952 20-390 limits assumed): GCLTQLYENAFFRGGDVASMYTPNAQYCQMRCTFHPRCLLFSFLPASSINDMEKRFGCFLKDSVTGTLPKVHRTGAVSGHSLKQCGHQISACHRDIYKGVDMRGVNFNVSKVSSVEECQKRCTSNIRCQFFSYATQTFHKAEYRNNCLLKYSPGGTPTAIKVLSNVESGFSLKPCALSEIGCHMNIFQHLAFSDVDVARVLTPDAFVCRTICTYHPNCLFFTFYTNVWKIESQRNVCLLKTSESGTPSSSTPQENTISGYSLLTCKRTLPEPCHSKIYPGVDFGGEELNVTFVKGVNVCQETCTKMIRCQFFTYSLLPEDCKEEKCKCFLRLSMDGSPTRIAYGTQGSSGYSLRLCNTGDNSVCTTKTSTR
Procedure: as §3, §4

Factor Xa = target: T8, Factor Xa (Homo sapiens, UniProt P00742); test: Specificity assay, Factor Xa; assay type: biochemical; settings: 100 nM inhibitor; FXa 2.5 nM, 0.7 mM Spectrozyme fXa
T8 construct: purchased Haematologic Technologies Inc. (Essex Jct., Vt.)
T8 sequence (P00742 235-488 limits assumed): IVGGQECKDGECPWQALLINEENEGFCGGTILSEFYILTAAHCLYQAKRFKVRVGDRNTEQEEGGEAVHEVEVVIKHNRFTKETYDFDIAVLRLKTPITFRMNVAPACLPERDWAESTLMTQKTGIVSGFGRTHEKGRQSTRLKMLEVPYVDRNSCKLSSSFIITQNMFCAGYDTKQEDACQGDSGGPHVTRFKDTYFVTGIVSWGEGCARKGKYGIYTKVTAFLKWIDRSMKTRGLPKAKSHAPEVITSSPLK
T8 sequence (P00742 41-179 limits assumed): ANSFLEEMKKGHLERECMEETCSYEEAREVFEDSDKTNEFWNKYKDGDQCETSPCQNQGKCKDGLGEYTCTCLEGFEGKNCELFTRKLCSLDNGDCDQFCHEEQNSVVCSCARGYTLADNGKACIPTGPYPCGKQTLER
Procedure: as §1, §2

Factor XIa [4] = target: T2, Factor XIa; test: Apparent equilibrium dissociation constant (Ki*) with FXIa; assay type: biochemical; settings: at least 3 independent measurements
Procedure: as §4

plasma kallikrein [5] = target: T7, plasma kallikrein; test: Apparent equilibrium dissociation constant (Ki*) with plasma kallikrein; assay type: biochemical
Procedure: Reactions (200 μL) were carried out in microtiter plates and the rate substrate (0.7 mM S2302) was monitored at 405 nm following a 1.5 h incubation. Plots of the fractional rate versus inhibitor concentration were fit by nonlinear regression analysis to Equation 1 to determine apparent equilibrium dissociation constants (Ki *):

plasma kallikrein [6] = settings: Seymour et al. 1994; read-out: Ki for plasma kallikrein (literature); cited from earlier work
[7] = 25° C., pH 7.5, 0.7 mM S2302, 1.5 h incubation, at least 3 independent measurements, read-out: Plasma Kallikrein Ki*

Molecule	fraction of remaining proteolytic activity, thrombin (thrombin)	fraction of remaining proteolytic activity, Factor XIa (Factor XIa [1])	fraction of remaining proteolytic activity, activated protein C (activated protein C)	fraction of remaining proteolytic activity, TF · Factor VIIa [2]	fraction of remaining proteolytic activity, Factor XIIa (Factor XIIa)	fraction of remaining proteolytic activity, plasmin (plasmin)	fraction of remaining proteolytic activity, plasma kallikrein (plasma kallikrein [3])	fraction of remaining proteolytic activity, Factor Xa (Factor Xa)	Ki (Factor XIa [4]) [nM]	Ki (plasma kallikrein [5]; [7]) [nM]	other results
KALI-8: APPI Kunitz domain mutant, R1 LGHCRAAIPR2 FR3 (SEQ ID NO: 3) (VREVCSEQAELGHCRAAIPRWYFDVTEGKCAPFFYGGCGGNRNNFDTEEYCAAVCGSA)	0.99	0.00	0.89	0.94	1.00	0.83	0.00	1.13			
KALI-13: APPI Kunitz domain mutant, R1 SGHCRAAIPR2 FR3 (SEQ ID NO: 1) (VREVCSEQAESGHCRAAIPRWYFDVTEGKCAPFFYGGCGGNRNNFDTEEYCAAVCGSA)	0.96	0.01	0.90	0.96	1.00	0.65	0.00	0.97			
VREVCSEQAEPGHCRAAHPRWYFDVTEGKCAPFYYGGCGGNRNNFDTEEYCAAVCGSA (disulfide 5-55, 14-38, 30-51) [KALI-PY]									11.7 ± 11.9	0.136 ± 0.081	
VREVCSEQAEEGHCRAAHPRWYFDVTEGKCAPFFYGGCGGNRNNFDTEEYCAAVCGSA (disulfide 5-55, 14-38, 30-51) [KALI-E]									4.5 ± 4	0.103 ± 0.054	
CC(C)[C@H](N)C(=O)N[C@@H](CCCNC(=N)N)C(=O)N[C@@H](CCC(=O)O)C(=O)N[C@H](C(=O)N[C@H]1CSSC[C@@H](C(=O)NCC(=O)N[C@@H](CO)C(=O)N[C@@H](C)C(=O)O)NC(=O)[C@H](C(C)C)NC(=O)[C@H](C)NC(=O)[C@H](C)NC(=O)[C@@H]2CSSC[C@@H]3NC(=O)[C@H](CCCCN)NC(=O)CNC(=O)[C@H](CCC(=O)O)NC(=O)[C@H]([C@@H](C)O)NC(=O)[C@H](C(C)C)NC(=O)[C@H](CC(=O)O)NC(=O)[C@H](Cc4ccccc4)NC(=O)[C@H](Cc4ccc(O)cc4)NC(=O)[C@H](Cc4c[nH]c5ccccc45)NC(=O)[C@H](CCCNC(=N)N)NC(=O)[C@@H]4CCCN4C(=O)[C@H](Cc4c[nH]cn4)NC(=O)[C@H](C)NC(=O)[C@H](C)NC(=O)[C@H](CCCNC(=N)N)NC(=O)[C@H](CSSC[C@H](NC(=O)CNC(=O)CNC(=O)[C@H](Cc4ccc(O)cc4)NC(=O)[C@H](C(C)C)NC(=O)[C@H](Cc4ccccc4)NC(=O)[C@@H]4CCCN4C(=O)[C@H](C)NC3=O)C(=O)NCC(=O)NCC(=O)N[C@@H](CC(N)=O)C(=O)N[C@@H](CCCNC(=N)N)C(=O)N[C@@H](CC(N)=O)C(=O)N[C@@H](CC(N)=O)C(=O)N[C@@H](Cc3ccccc3)C(=O)N[C@@H](CC(=O)O)C(=O)N[C@@H]([C@@H](C)O)C(=O)N[C@@H](CCC(=O)O)C(=O)N[C@@H](CCC(=O)O)C(=O)N[C@@H](Cc3ccc(O)cc3)C(=O)N2)NC(=O)[C@H](Cc2c[nH]cn2)NC(=O)CNC(=O)[C@H](CCC(=O)O)NC(=O)[C@H](CCC(=O)O)NC(=O)[C@H](C)NC(=O)[C@H](CCC(N)=O)NC(=O)[C@H](CCC(=O)O)NC(=O)[C@H](CO)NC1=O)C(C)C [KALI-EV]										0.117 ± 0.059	
KALI-46: APPI Kunitz domain mutant, R1 EGRCRASILR2 FR3 (SEQ ID NO: 33) (VREVCSEQAEEGRCRASILRWYFDVTEGKCAPFFYGGCGGNRNNFDTEEYCAAVCGSA)	0.99	0.00	0.83	0.86	0.97	0.64	0.00	1.02			
VREVCSEQAEEGHCRAAHPRWYFDVTEGKCAPFYYGGCGGNRNNFDTEEYCAAVCGSA (disulfide 5-55, 14-38, 30-51) [KALI-EY]									7.3 ± 5.5	0.98 ± 0.075	
ecotin: a 142 residue protein from E. coli											Ki (plasma kallikrein [6]): ~0.16 nM
VREVCSEQAEPGHCRAAHPRWYFDVTEGKCAPFFYGGCGGNRNNFDTEEYCAAVCGSA (disulfide 5-55, 14-38, 30-51) [KALI-P]									13.8 ± 17.4	0.2 ± 0.099	
KALI-48: APPI Kunitz domain mutant, R1 TGHCRAAIPR2 FR3 (SEQ ID NO: 2) (VREVCSEQAETGHCRAAIPRWYFDVTEGKCAPFFYGGCGGNRNNFDTEEYCAAVCGSA)	0.99	0.01	0.92	0.95	0.99	0.23	0.00	0.55			inhibition of plasmin (plasmin): > 60%
VREVCSEQAEDGHCRAAHPRWYFDVTEGKCAPFYYGGCGGNRNNFDTEEYCAAVCGSA (disulfide 5-55, 14-38, 30-51) [KALI-DY]									8.2 ± 3.5		Ki (plasma kallikrein [5]; read-out: Ki* for plasma kallikrein): 0.015 ± 0.014 nM
KALI-30: APPI Kunitz domain mutant, R1 EGHCRAAILR2 FR3 (SEQ ID NO: 5) (VREVCSEQAEEGHCRAAILRWYFDVTEGKCAPFFYGGCGGNRNNFDTEEYCAAVCGSA)	1.00	0.00	0.81	1.02	0.92	0.53	0.00	0.68			
VREVCSEQAEPGHCRAAHPRWYFDVTEGKCAPFVYGGCGGNRNNFDTEEYCAAVCGSA (disulfide 5-55, 14-38, 30-51) [KALI-PV]									4.1 ± 5.2	0.166 ± 0.07	
VREVCSEQAEDGHCRAAHPRWYFDVTEGKCAPFVYGGCGGNRNNFDTEEYCAAVCGSA (disulfide 5-55, 14-38, 30-51) [KALI-DV]									1.3 ± 1.4	0.043 ± 0.034	
VREVCSEQAEDGHCRAAHPRWYFDVTEGKCAPFFYGGCGGNRNNFDTEEYCAAVCGSA (disulfide 5-55, 14-38, 30-51) [KALI-D]									5.7 ± 7	0.025 ± 0.022	
